Reference: the supplement of paper PMC10567573
± gives the standard deviation.

Experiment: protein stability index of a GFP-peptide fusion (GPS, HEK-293T) (PSI 1-6); higher = more stable
[1] = treatment: DMSO, c terminus: a fixed tail appended
[2] = treatment: MLN4924 1 uM, 8 h, c terminus: a fixed tail appended
[3] = treatment: DMSO, c terminus: native
[4] = treatment: MLN4924 1 uM, 8 h, c terminus: native
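Note: 24-mer peptide tiles fused after GFP, lentivirally expressed, FACS-sorted into six equal bins by GFP/DsRed ratio, decoded by Illumina sequencing, PSI is the read-weighted mean bin number.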

Sequence	protein stability index [1]	protein stability index [2]	protein stability index [3]	protein stability index [4]
FELALQLAEMKDDSDSEKQQQIHH [VPS39]	4.76 ± 0.17	4.8 ± 0.12	–	–
FEMKKGQCKDALEIYKRFLTRMTR [SNAP91]	2.46 ± 0.7	2.56 ± 0.43	–	–
FESHDLLRKGFSCVKNELLPSHPL [POMP]	2.92 ± 0.31	3.05 ± 0.42	–	–
FFEDGDVQRHLYLQDVIMQVADVP [ZNF511]	2.82 ± 0.29	2.81 ± 0.43	–	–
FFVSSINTLVTKTMEDTLMTVKQY [ARFIP2]	3.08 ± 0.64	3.05 ± 1	–	–
FFVVETLCIIWFSFELLVRFFACP [KCNA3]	3.11 ± 0.52	2.74 ± 0.42	–	–
FGDLSLSLVTVGKHLTARVLCLIV [POMT2]	3.39 ± 0.76	2.71 ± 0.48	–	–
FGSFLLLLFSLTQFSVVSVVAYLA [RTN1]	3.14 ± 0.62	3.35 ± 0.6	–	–
FIDTYSDVGRYIDHYAAIKKAWDD [FBXO3]	2.6 ± 0.61	2.37 ± 0.77	–	–
FIPAHVAFDKKVLKFDAYFQEDVP [EFHC1]	2.24 ± 0.23	2.57 ± 0.58	–	–
FIPSLKYVQWSLPFIVFGATGLTS [SLC22A15]	3.14 ± 0.22	3.33 ± 0.36	–	–
FKDKSTYIESSTKVYDDMAFRYLS [CLPTM1]	2.65 ± 0.33	2.57 ± 0.32	–	–
FKLLDKNSSGDIGKKEIKPFKRFL [SMOC2]	2.54 ± 0.42	3.01 ± 0.43	–	–
FLDLVKPEPVYKLTQRQVNITVQK [HACD3]	2.56 ± 0.14	2.79 ± 0.44	–	–
FLEEAHEWNQKRARKAMRNGISPI [N4BP2L1]	3.1 ± 0.29	3.18 ± 0.34	–	–
FLESTDSFNNELKRLCGLKVEVDM [SMARCE1]	4.08 ± 0.23	4.22 ± 0.21	–	–
FLSEEEYWKLQIFFTNVIQALGEH [CCNC]	2.42 ± 0.96	2.36 ± 0.084	–	–
FLVLEQFLTILPEELQSWVRGHHP [ZNF232]	2.45 ± 0.55	2.5 ± 0.62	–	–
FMGTISDVKTNVQLLKGRVDNIST [CD207]	3.02 ± 0.22	3.12 ± 0.32	–	–
FMHSFEEKYGRAHPVFYQGTYSQA [FAF2]	2.18 ± 0.21	2.42 ± 0.28	–	–
FPAMLFSSMLTGILWDTLLRLCAW [POMT2]	3.23 ± 0.51	3.09 ± 0.12	–	–
FPPFFDDNPFGIYQKILAGKIDFP [PRKX]	2.28 ± 0.067	2.27 ± 0.62	–	–
FQGSMRIFTKKLPHPDLPAEEKEQ [USP39]	2.55 ± 0.75	3.77 ± 0.69	–	–

Sequence	protein stability index [1]	protein stability index [2]	protein stability index [3]	protein stability index [4]
FRFIPVLFPNAKKEHVPTWLQNTH [TRAF3IP2]	2.3 ± 0.61	2.6 ± 0.69	–	–
FRRSLHDPDGLVATYISEVHEHDG [APMAP]	4.02 ± 0.28	4.01 ± 0.3	–	–
FRRTDGRCLIWGRKPKVIECSYTS [DHCR7]	2.35 ± 0.17	2.34 ± 0.33	–	–
FSEETEKKFEHFSGLLNNQLSPQ [LOXL2]	–	–	3.57 ± 0.72	4.61 ± 0.37
FSLMVTFPDVPLGIFLFCVCVIAI [TMEM175]	3.37 ± 0.5	3.14 ± 0.31	–	–
FSQEIGLASLGASEEAVQKLATCY [TPH1]	3.12 ± 0.18	3.34 ± 0.3	–	–
FSSDKAKAGSSEWLAVDGLVSPSN [ATF4]	3.8 ± 0.26	4.08 ± 0.32	–	–
FTAALEHCRENAHDKIRPISSIGQ [SPACA9]	3.3 ± 0.088	3.41 ± 0.25	–	–
FTSPDYQQQCHEMAERLEDSVLKG [SDE2]	3.01 ± 0.59	3.62 ± 0.7	–	–
FVCQCYSGYALAEDGKRCVAVDYC [MATN2]	2.29 ± 0.93	2.77 ± 0.46	–	–
FVEATRKWKVGIPSDPLVSIGALI [ALDH8A1]	2.34 ± 1.1	2.16 ± 0.57	–	–
FWQTQYNNMNAVNLFFAWIKIFKY [PKD2L1]	2.38 ± 0.38	2.19 ± 0.52	–	–
GAFDSFLLRFGVPSPSTLEPHPRP [TNXB]	2.99 ± 0.42	2.97 ± 0.35	–	–
GAFYRRAQRLRPQDEPRQGCQPED [KCNG1]	5.21 ± 0.18	5.11 ± 0.11	–	–
GALLAPIRVLLAFIVLFLLWPFAW [LPCAT4]	2.68 ± 0.51	2.67 ± 0.54	–	–
GASLYAISNVCEEYIVKKLSRQEF [SLC35F2]	2.3 ± 0.27	2.45 ± 0.43	–	–
GCCVFAFLVGLLFVQRSGNYFVTM [SLC6A17]	3.39 ± 0.34	3.12 ± 0.07	–	–
GCSLTADGLPLHFFIQTVRPKDTV [MYORG]	2.3 ± 0.25	2.19 ± 0.33	–	–
GCWAWPLAGLSVGRSSLTACSLPL [PXN]	1.99 ± 0.86	2.15 ± 0.82	–	–
GFTPLHMAVDKDTTNVGRYPVGRF [FEM1A]	3.43 ± 0.089	3.6 ± 0.36	–	–
GGGPSATEWACILRRKTPRHKQPT [C6orf223]	3.57 ± 0.12	3.72 ± 0.16	–	–
GGLGGGYGGGLGGGFGGGFAGGFV [KRT13]	2.16 ± 0.25	2.1 ± 0.82	–	–
GGQDGLGAPKDQQQPPQQQPSQQQ [KLHL14]	5.36 ± 0.5	5.4 ± 0.56	–	–

Sequence	protein stability index [1]	protein stability index [2]	protein stability index [3]	protein stability index [4]
GGYEKASKRMTFQMPKFDLGPLLS [MYOZ1]	2.54 ± 0.32	2.64 ± 0.22	–	–
GHCLLDKPEAPLHLPVTFPGKDYD [ADAMTS4]	4.14 ± 0.26	4.4 ± 0.3	–	–
GKKEIKPFKRFLRKKSKPKKCVKK [SMOC2]	3.1 ± 0.25	–	–	–
GKSVSSSSSVETGPSVSEPPGLPR [SPATS1]	5.08 ± 0.18	5.11 ± 0.067	–	–
GKWPQVLFFPEGTCSNKKALLKFK [LPCAT4]	2.52 ± 0.31	2.57 ± 0.45	–	–
GLAMALEPNTTFLRKSLKAALKHL [FANCE]	2.48 ± 0.33	2.54 ± 0.62	–	–
GLKASLERLQLEYVDVVFANRPDP [KCNAB2]	2.47 ± 0.42	2.21 ± 0.37	–	–
GLMTQSSLETHHYVDCGGNSTAI [TMEM106C]	–	–	3.18 ± 0.074	3.6 ± 0.13
GLQRNLLVENIIDIYKQECSSRPL [TRIM63]	2.71 ± 0.31	2.87 ± 0.19	–	–
GMDDFLGVYSMPAGTKVFEVPEMS [TLE6]	3.08 ± 0.23	3.15 ± 0.25	–	–
GNIIAHASTTRLYLRKGRGETRIC [RAD51]	3.11 ± 0.44	3.16 ± 0.34	–	–
GNMANLSLHDHDGSSGASDQDTLA [DVL3]	5.42 ± 0.12	5.3 ± 0.41	–	–
GPLPQSFDKEWVAKQTKRMLDMKV [COX4I1]	3.86 ± 0.15	3.86 ± 0.31	–	–
GPRVGEALVSHPEVPLISFTGSQP [ALDH8A1]	3.77 ± 0.34	4.09 ± 0.31	–	–
GPVPGTPGLPGSTGNPKSEEPEVP [SPNS1]	5.55 ± 0.2	5.3 ± 0.34	–	–
GQFVFARDAKAAMAGRLMIRKLVA [AASDHPPT]	2.08 ± 0.43	2.02 ± 0.46	–	–
GQINVVKHLLNLGVEIDEINVYGN [ANKRD44]	2.32 ± 0.46	2.29 ± 0.3	–	–
GREDEDGWETRGDRKARKPLVEKK [HES6]	5.4 ± 0.14	5.34 ± 0.37	–	–
GRRATLQRLVEALEENELTSLAED [TRADD]	4.54 ± 0.19	4.43 ± 0.14	–	–
GSAAPGSPLAADPACLGQPHTPGK [FOXJ1]	5.25 ± 0.29	5.4 ± 0.13	–	–
GSCSTEVEKETQEKMTILQTYFRQ [ATP6V1G1]	2.5 ± 0.25	2.62 ± 0.3	–	–
GSGFGGGYGGGLGAGFGGGLGAGF [KRT16]	2.27 ± 0.25	2.54 ± 0.67	–	–
GSKKKFDKCMVCGGDGSGCSKQSG [ADAMTS4]	4.18 ± 0.4	4.02 ± 0.34	–	–

Sequence	protein stability index [1]	protein stability index [2]	protein stability index [3]	protein stability index [4]
GSLPGPGQTSGAREPPQAVSIKEA [VENTX]	5.01 ± 0.41	5.52 ± 0.2	–	–
GTFQVNFYHDHTKIIICSQNEEYL [PLK2]	2.5 ± 1.1	2.21 ± 0.42	–	–
GTIRPVRCPSSSLHMSQRERTWPP [C22orf15]	3.77 ± 0.098	3.75 ± 0.17	–	–
GTNEALLRQLRELEEQFALEAGGY [PRPH]	4.07 ± 0.24	3.92 ± 0.26	–	–
GTQPRATKHKCRQLTKASLKPRGC [SPACA9]	3.81 ± 0.29	3.95 ± 0.19	–	–
GVCQSMCHDKYTKIFNDFKDRMKS [ZMYND11]	3.11 ± 0.032	2.92 ± 0.23	–	–
GVVDSEDLPLNISREMLQQSKILK [HSP90AB1]	4.09 ± 0.22	4.14 ± 0.28	–	–
GVVHPSNEVLSSDILPRWAIIGWL [INTS3]	2.13 ± 0.41	2.18 ± 0.45	–	–
GWFWVCPGGGDICMYRHALPPGFV [ZC3H15]	2.83 ± 2.2	2.57 ± 0.8	–	–
GYQHVDLQNFSSSWSDGMAFCALV [SMTNL2]	2.16 ± 0.49	2.01 ± 0.15	–	–
HALGSPEKVKACQGQYETIERLRS [TBC1D10A]	4.03 ± 0.21	3.88 ± 0.3	–	–
HDVRLNGSAAGHVLVKDNGLGCKD [TENT5C]	4.88 ± 0.38	4.92 ± 0.16	–	–
HEEEPLGTAGPLALARDLLSETAD [GMPPB]	5.38 ± 0.42	5.18 ± 0.15	–	–
HELMLRFKDEYKSENIKLREENEK [CCDC89]	5.21 ± 0.36	5.29 ± 0.13	–	–
HEVKCQGKPLAGIYRKREEKRNAG [KMT5A]	4.64 ± 0.55	5.06 ± 0.1	–	–
HFDATRGWLLTSGTDKVIKLWDMT [WDFY2]	2.43 ± 0.3	2.78 ± 0.41	–	–
HGQENIVRILLRRGVDVSLQGKDA [RIPK4]	2.5 ± 0.087	3.13 ± 0.24	–	–
HLIFSYSVWVLRDFPEDGLKIFTE [VPS39]	2.98 ± 0.58	3.15 ± 0.54	–	–
HLLEAEPLSPIQASSVHLKSESSL	4.16 ± 0.1	4.14 ± 0.15	–	–
HPNSRKSSAGGAKAGQPESRALAL [ZNF8]	4.67 ± 0.36	4.77 ± 0.16	–	–
